From patent US20080113421A1, “Stabilizing proteins against denaturation and inactivation by charged detergents using chemical modifications, including modifications that increase net charge” (President and Fellows of Harvard College, priority 2006, published 2008)

What was measured:
Type in all cases: physicochemical
[1] = Net charge of protein (capillary electrophoresis, charge ladder)
Procedure: BCA-Ac18 was synthesized by reacting the lysine residues of BCA with acetic anhydride in 100 mM HEPES buffer, pH 8.2. The N-terminus of BCA was acetylated posttranslationally. The final product contained ˜90% of BCA-Ac18 and 10% of BCA-Ac17, as determined by peak areas in an electropherogram from separation by capillary electrophoresis. The net charge of BCA in Tris-Gly buffer was about −3, and the net charge of BCA-Ac18 was about −19. It is believed that the difference in charge between BCA and BCA-Ac18 was less than 18 full units of charge due to charge regulation-adjustment of protonation states of other ionizable groups on the protein to counteract the increasing electrostatic potential on its surface.
For any charge ladder of BCA, as the number of modifications (n) increases, the total charge on the protein becomes more negative, and the surface of the protein becomes more hydrophobic due to conversion of NH3^+ groups to NHCOR groups. Native BCA has a charge of ˜−2.9 at pH 8. The charge on the early rungs of the ladder increased linearly with the number of acylations; each rung adds an additional charge of ˜−0.9. Therefore, for example, BCA-Ac8 has a charge of ˜−10. The later rungs of the ladder may differ by <0.9 units of charge. Using the Linderstrom-Lang model of cooperativity in proton binding, the charge on BCA-Ac18 was calculated to be −19. The mobility of a given rung of BCA-Acn may have nearly the same mobility as the corresponding rung of BCA-Hexn. Thus, the charges of the BCA-Hexn may be indistinguishable from those of BCA-Acn for a given rung number. (Small deviations in mobility between later rungs of the two ladders may be due either to a change in charge or a change in drag between the two ladders. It can be assumed that any differences in the mobilities are due to additional drag from the hexanoyl groups relative to the acetyl groups.

[2] = Critical micelle concentration by isothermal titration calorimetry; conditions: 25 mM Tris-192 mM Gly, pH 8.4 buffer
Procedure: Critical micelle concentration of SDS in Tris-Gly buffer was determined as follows. The critical micelle concentration (CMC) of SDS in 25 mM Tris-192 mM Gly, pH 8.4 buffer was 4.3 mM, as measured by isothermal titration calorimetry. In this example, the kinetics of denaturation and renaturation of proteins in concentrations of SDS below the CMC were studied. The difference in kinetics of denaturation of the two proteins may also occur in concentrations of SDS above the CMC.

[3] = Denaturation of BCA charge ladders in 3 mM SDS (dialysis cassette) followed by capillary electrophoresis, with transition-state model fit; conditions: for b coefficient of fit ΔG‡=a+bn+cn^2: 3 mM SDS; for Chydro (hydrophobic contribution to ΔΔG‡): per acylation
Procedure: Denaturation experiments were performed as follows. A charge ladder of BCA (BCA-Acn or BCA-Hexn, 1 mL of 100 micromolar total protein in Tris-Gly buffer) was placed in a dialysis cassette (MW cutoff of 10 kDa). The dialysis cassette was placed in a 1 L bath of 3 mM SDS in Tris-Gly buffer at room temperature. The buffer was changed every 24 h. At regular intervals of time (approximately every half-hour), 100 microliters of the protein solution was removed from the dialysis cassette; ˜7 microliters of that aliquot was diluted 10-fold and the absorbance of the diluted sample at 280 nm (ε280,BcA=57,000 M^−1 cm^−1, the absorption cross section can be assumed to be is unchanged by acylation) was measured to determine the total protein concentration. The aliquot was diluted because the absorbance of the 100 micromolar solution was too high to be read accurately by the ultraviolet spectrometer. This diluted aliquot was discarded. The remainder of the solution was then run on CE. The protein solution, except for the portion diluted for ultraviolet measurement, was returned to the dialysis cassette; the aliquot was outside of the dialysis cassette for ˜5 min.
Capillary electrophoresis experiments were carried out in a Beckman (Fullerton, Calif.) PACE-MDQ system, using a capillary of inner diameter of 50 micrometers of total length of 110.2 cm, 100 cm to the detector. Tris-Gly in D2O was used as the running buffer, and the applied voltage was 30 kV. D2O was used in place of H2O for the electrophoresis buffer because the viscosity of D2O is higher than that of H2O and the higher viscosity minimizes diffusion. Samples were injected using pressure (20 psi) for 30 s. Each sample contained 0.65 mM dimethylformamide as an electrically neutral marker for electroosmotic flow.
The CMC of SDS in the Tris-Gly buffer used in this example was 4.3 mM. 3 mM SDS was chosen for these experiments because this concentration of SDS denatured BCA in an interval of time that was convenient for experimental work using CE. In addition, this concentration of SDS was close to the concentration often used in SDS-PAGE (0.1% or 3.5 mM). 1 mL of a solution of ˜100 micromolar of a charge ladder of BCA, dissolved in Tris-Gly buffer, was placed into a dialysis cassette (molecular weight cutoff of 10 kDa) and the cassette placed in 1 L of Tris-Gly buffer containing 3 mM SDS. The bath was kept at room temperature (˜22° C.) for the duration of the experiment.
At regular intervals of time (approximately every half hour), 100-microliter aliquots of the solutions containing the charge ladder of BCA were removed from the cassette in a bath of 3 mM SDS in Tris-Gly buffer, the total protein concentration in the aliquot was measured using absorbance at 280 nm, and a portion (˜10 nL) of the aliquot injected onto the CE. The unused portions of the aliquots were then returned to the cassette.
Residence time in the detection volume was determined as follows. […] If two proteins with the same absorptivity were present in a sample in equal concentrations, the protein of lower velocity would have a larger measured peak area than the protein of higher velocity. To correct for this experimental bias, the area of each peak was multiplied-by the velocity of the protein (Acorr=Ameasured×LD/tD), where LD is the length of the capillary from the end (where injection occurs) to the detector (100 cm in all of these experiments) and tD is the time it takes for the rung to reach the detector.
Initial differences in concentrations of each rung were as follows. The areas of each of the rungs in the charge ladder were not all equal before denaturation. To measure the fraction of each rung that has denatured at each time, the velocity-corrected area of each rung in the sample was divided by the velocity-corrected area of that rung in the charge ladder run in the absence of SDS.
A comparison of the rates of denaturation follows. […]

[4] = Refolding of SDS-denatured protein by dilution or removal of SDS, monitored by DNSA fluorescence
Procedure: Monitoring refolding of BCA and BCA-Ac18 was performed as follows. The proteins (10 micomolar) were denatured in 10 mM SDS for 24 h. […] Refolding was initiated by dilution of an aliquot of the denatured sample to a final concentration of protein of 200 nM, with varying concentrations of SDS in the buffer. Immediately prior to the measurement, an aliquot of renaturing protein was mixed with an equal aliquot of DNSA. The rate constants for renaturation were determined by fitting the data to FU=FUmax(1-e^−kt)+FUmin. The refolding experiments at 37° C. were performed similarly.
The kinetics of refolding were determined as follows. The rates of refolding of BCA and BCA-Ac18 from the fully denatured states (in 10 mM SDS) were measured by dilution of the solutions into buffers containing concentrations of SDS from 0.1 to 2 mM, using the fluorescence of DNSA as a marker for the appearance of the folded state. […] As in denaturation studies, an aliquot of solution of the protein and SDS was mixed with an equal aliquot of solution of DNSA with the same amount of SDS immediately prior to the measurement to eliminate the possibility of DNSA influencing refolding kinetics. The buffer also contained 100 micromolar ZnSO4 to ensure that the folded protein could incorporate a Zn(II) cofactor.
The raw data emphasize the decrease in the yield of folded protein with increasing concentration of SDS. […] The half-lives (t1/2) for renaturation were determined, where possible, by fitting the data to FU=FUmax(1-exp(−t/t1/2))+FUmin; the fits are shown (solid lines). The tables provide data for refolding in 0.1 and 0.4 mM SDS as well as for concentrations on the graphs for comparison. […] The error bars represent the difference between the average and the largest and smallest values measured from at least three replicate measurements.

[5] = Unfolding (denaturation) of protein in SDS in Tris-Gly buffer, monitored by DNSA fluorescence
Procedure: Monitoring unfolding of BCA and BCA-Ac18 was performed as follows. The proteins (200 nM) were incubated in different concentrations of SDS in Tris-Gly buffer. A 100 microliter aliquot of protein-SDS solution was mixed with 100 microliters of DNSA solution (30 micromolar) with the same concentration of SDS, and measured the intensity of fluorescence (Perkin-Elmer LS50B spectrometer, λex=280 nm, λem=460 nm) as a function of time. The denaturation of BCA was continuously monitored in concentrations of SDS above 4 mM. The rate constants were determined for denaturation by fitting the intensity vs. time data to FU=FUmaxe^−kt+FUmin. Unfolding experiments at 37° C. were performed similarly, with samples stored in a dry bath incubator (Fisher Scientific).
The kinetics of unfolding were determined as follows. The rates of denaturation of BCA and BCA-Ac18 were measured by incubating the protein (200 nM) in solutions of different concentrations of SDS. Immediately prior to the measurement, an aliquot of solution containing protein and SDS was mixed with a solution containing DNSA and the same concentration of SDS; this protocol minimized the possibility that DNSA might stabilize the native conformation of the protein, and influence the rate of its denaturation. When BCA was denatured in concentrations of SDS of 4 mM and higher, DNSA was added to the original, denaturing solution because the rate of denaturation was too fast to follow with manual mixing of aliquots of protein and DNSA. It was observed that DNSA, when present with the protein in the denaturing solution, reduced the rates of denaturation by factors of about 2-10.
FIG. 1 plots the fluorescence of DNSA, normalized to the signal at t=0, as a function of time of incubation of samples of BCA and BCA-Ac18 in various concentrations of SDS. The decrease in the intensity of fluorescence of DNSA, and thus in the amount of folded protein, followed first-order kinetics. Denaturation of proteins with surfactants probably proceeds through intermediates, but when using a marker that is specific to the folded active site of carbonic anhydrase, transitions beyond the initial unfolding of the three-dimensional structure of the protein were not detected.
The tables list the half-lives (t1/2) for denaturation of BCA and BCA-Ac18 at several concentrations of SDS. The denaturation of BCA at 4 mM occurred very rapidly, and data are not shown to avoid overlap with data at 3.5 mM. The error bars represent the difference between the average and the largest and smallest values measured from at least three replicate measurements.

[6] = Refolding after 1 week incubation at intermediate SDS concentrations (aggregation test)
Procedure: Aggregation was tested by renaturing the proteins from a denatured state at 10 mM SDS to 0.1 mM SDS, but through an incubation step at intermediate concentrations of SDS, instead of renaturing by rapid dilution from 10 mM SDS to 0.1 mM SDS directly (i.e., 10 mM SDS→2.5 mM SDS→0.1 mM SDS instead of 10 mM SDS→0.1 mM SDS). For incubation, concentrations of SDS were chosen in which aggregation was believed to occur on a similar or shorter time scale as refolding. The protein-SDS complex was diluted from 10 mM SDS to 2.5-0.7 mM SDS, the proteins were incubated for 1 week at those concentrations, and the samples further diluted to 0.1 mM SDS to initiate fast refolding.
The fluorescence signal from DNSA was normalized to that of refolded protein by rapid dilution from 10 to 0.1 mM SDS.

BCA-Ac8: rung of the acetyl charge ladder of BCA with 8 acetylated lysines (regioisomers)
charge of rung from number of acylations ([1]; each rung adds ~−0.9): ~−10

CCCCCCCCCCCCOS(=O)(=O)[O-].[Na+] [SDS, sodium dodecyl sulfate]
critical micelle concentration (CMC) [2]: 4.3 mM

BCA-Hexn: charge ladder of BCA prepared with hexanoic anhydride
b coefficient of fit ΔG‡=a+bn+cn^2 [3]: 0.33±0.01 kcal/mol of protein | Chydro (hydrophobic contribution to ΔΔG‡) [3]: 0.26 kcal/mol

BCA-Ac18: charge-modified derivative of BCA having all 18 lysine groups acetylated
concentration of SDS at which no refolded protein was observed ([4]; dilution from 10 mM SDS): ≥ 1600 µM | rate of refolding relative to BCA ([4]; solutions with the same concentration of SDS): faster than refolding of BCA | range of SDS concentrations in which protein neither refolds nor unfolds at an observable rate (window) ([4]; time scales of a month): 1.6 to 2 mM | refolding rate (given as time) after denaturation with SDS ([4]; upon complete removal of the SDS): 21 ± 2 min | t1/2 for denaturation ([5]; 4 mM SDS, Tris-Gly buffer): 30 h | difference in denaturation time, BCA-Ac18 vs BCA (factor) ([5]; 4 mM and 10 mM SDS): ~10^4 | t1/2 for denaturation ([5]; 10 mM SDS, Tris-Gly buffer): 2.67 h | difference in kinetics of denaturation of BCA and BCA-Ac18 (factor) ([5]; SDS at and above 2.5 mM): 10^1-10^4 | denaturation in low concentrations of SDS ([5]; SDS below 2 mM, long (~1 month) periods of time): no denaturation was observed | concentration of SDS at which the protein denatures ([5]; Tris-Gly buffer, CMC 4.3 mM): ≥ 2500 µM | change in rates of denaturation with SDS, BCA vs peracetylated BCA ([5]; change in charge of the protein by a factor of 5): −3 orders of magnitude | difference in activation energy for denaturation, BCA-Ac18 vs BCA ([5]; from the factor of about 10^4 in rates): 5 kcal/mol | net charge ([1]; Tris-Gly buffer): about −19 | yield of refolded protein after incubation, relative to BCA ([6]; 1 week incubation at intermediate SDS, then 0.1 mM SDS): higher than the yields of BCA | t1/2 for refolding ([6]; denatured in 10 mM SDS, incubated 1 week at intermediate SDS, diluted into 0.1 mM SDS): 0.292 ± 0.0233 h

BCA-Acn: charge ladder of BCA prepared with acetic anhydride
b coefficient of fit ΔG‡=a+bn+cn^2 [3]: 0.50±0.01 kcal/mol of protein | effects of charge on denaturation with SDS relative to effects of hydrophobicity ([3]; model of charge ladder data): ~5 fold | Chydro (hydrophobic contribution to ΔΔG‡) [3]: 0.085 kcal/mol
